In patent US20220112295A1 (Novo Nordisk, published 2022):

Legend:
cyno CD30L LZ = biological target: T1, cyno CD30L LZ (cynomolgus monkey, UniProt A0A7N9CVX7 63-234); test: cell-based or functional assay
T1 sequence: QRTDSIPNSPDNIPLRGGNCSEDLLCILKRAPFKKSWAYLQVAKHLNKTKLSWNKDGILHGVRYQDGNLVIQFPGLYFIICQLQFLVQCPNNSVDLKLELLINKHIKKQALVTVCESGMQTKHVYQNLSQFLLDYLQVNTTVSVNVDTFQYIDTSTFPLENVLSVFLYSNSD

[1] = biological target: T2, native cynomolgus monkey CD30L on activated T cells (cynomolgus monkey, UniProt A0A7N9CVX7 1-234); test: FACS, native cyno CD30L on activated cynomolgus T cells
T2 construct: whole, on cells; also called cynomologous CD30L
T2 sequence: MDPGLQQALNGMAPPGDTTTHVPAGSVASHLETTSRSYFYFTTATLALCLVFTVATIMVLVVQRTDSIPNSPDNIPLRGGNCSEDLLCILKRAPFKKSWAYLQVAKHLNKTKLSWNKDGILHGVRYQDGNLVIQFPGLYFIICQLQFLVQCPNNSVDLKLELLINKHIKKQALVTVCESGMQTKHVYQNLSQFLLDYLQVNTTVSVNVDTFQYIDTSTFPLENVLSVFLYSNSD
Experimental: The antibodies were rescreened for binding to native human and cynomologous monkey CD30L. Briefly, human Burkitt's lymphoma Ramos cells (3×10⁵/well) were incubated in round-bottomed 96-well microtiter plates (Costar® 96 well plate (Corning; Acton, Mass.) with a titration (10 μg/mL to 3.2 ng/mL final concentration) of anti-CD30L IgG antibodies in blocking buffer (PBS containing 0.02% sodium azide, 2% normal goat serum and 1% normal rabbit serum). Human […] fusion protein was included as a positive control for binding. Cells were incubated for 30 minutes at 4° C. then washed ×2 with PBS and incubated for a further 30 minutes at 4° C. with 30 μL/well of anti-hu IgG-biotin (1:50 in blocking buffer; Jackson Immunoresearch, West Grove, Pa.). After washing ×2 with PBS, cells were incubated for 30 minutes at 4° C. with 30 μL/well (1:50 dilution in PBS) of Streptavidin-Phycoerythrin (PE; Molecular Probes, Eugene, Oreg.). Cells were washed 2× with PBS and prepared for FACs analysis.
Cynomologous activated T cells were prepared by isolating peripheral blood mononuclear cells (PBMC) from heparinized cynomolgus monkey blood by density centrifugation over Isolymph (2000 rpm. for 20 minutes). PBMC were resuspended in 25 mLs of PBS, added to 300 μl of a 50% solution of 2-Aminoethylisothiouronium bromide (AET)-treated sheep erythrocytes and centrifuged at […] at 4° C. for 10 minutes. Pelleted cells were incubated at 4° C. for a further 20 minutes, gently resuspended and centrifuged over Isolymph. Supernatant was removed down to the T cell/erythrocyte pellet. The pellet was then resuspended in 25 mL of lyses buffer (0.85% ammonium chloride in water) and incubated at 37° C. for 10 minutes. The resultant T cells were pelleted and washed x2 in culture medium (RPMI-1640 medium +10% heat-inactivated fetal bovine serum) and then cultured ([…]) at 37° C. for 18 hr in the presence of 10 ng/mL Phorbol Myristate Acetate (PMA; Sigma Chemicals, St Louis, Mo.) and 500 ng/mL lonornycin (Calbiochem, San Francisco, Calif.). At the end of the culture period, cynomolgus T cells were counted and washed 1× with PBS and incubated with 2% Goat serum, 1% Rabbit serum and 0.1% Human serum in PBS for 30 minutes at […]. Cells were then stained with anti-huCD30L antibodies as described above for human Ramos cells.

[2] = biological target: T3, native human CD30L expressed on Ramos cells (human, UniProt P32971 1-234); test: FACS, antibody at 50 ug/mL, inhibition of huCD30.Fc-His binding to Ramos cells
T3 construct: It is used here for the native protein on human B cell lines; also called huCD30L; Native huCD30L
T3 sequence: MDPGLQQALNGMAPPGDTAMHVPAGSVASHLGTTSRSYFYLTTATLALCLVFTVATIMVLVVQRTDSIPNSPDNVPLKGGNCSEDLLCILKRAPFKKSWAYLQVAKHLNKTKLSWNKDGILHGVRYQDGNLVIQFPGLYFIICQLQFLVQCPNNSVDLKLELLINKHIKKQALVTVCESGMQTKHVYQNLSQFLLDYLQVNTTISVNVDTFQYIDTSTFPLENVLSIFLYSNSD
Experimental: The antibodies were also screened for ability to block binding of human CD30L to a soluble human CD30. c molecule. Briefly, human Ramos cells or activated cynomolgus monkey T cells were incubated with anti-CD30L IgGs at 50 μg/mL in blocking buffer for 30 minutes at 4° C. Soluble huCD30. Fc-His was then added at a final concentration of 2.5 ug/mL (30 μL/well) and incubated for 30 minutes at 4° C. Cells were washed ×2 with PBS and incubated with 5 μg/mL of a mouse anti-His monoclonal antibody (30μL/well in blocking buffer) and incubated for 30 minutes at 4° C. After washing ×2 with PBS, cells were incubated with anti-mouse IgG-PE (1:50 in PBS; BD Pharmingen, San Diego, Calif.) for a further 30 minutes at […]. Cells were then washed ×2 with PBS and prepared for FACs analysis.

B1: Antibody A (antibody, V domains shown)
VH: QVQLQESGPGLVKPSETLSLTCTVSGGSISSYIWSWIRQPAGKGLEWIGRIYASGNTNYNPSLKSRVTMSVDTSKNQFSLKLSSMTAADTAVYYCARDYRVAGTYYYYYGLDVWGQGTTVTVSS
VL: QSALTQPASVSGSPGQSITISCTGTSSDVGVYDYVSWYQQHPGKAPKLMIYEVSNRPSGVSNRFSGSKSGNTASLTISGLQTEDEADYYCSSYTSRSTWVFGGGTKLTVL
notes: Human antibody (XenoMouse); also called mAb A; anti-hCD30L A
For B1, the “IC50, inhibition of IL-8 release (K299 single cell assay with cyno CD30L LZ)” value (from here on “IC50, inhibition of IL-8 release”) (cyno CD30L LZ) was 2 nM, the EC50 [1] was 2.2 nM and the “% inhibition” value [2] was 68%.

B2: Antibody E (antibody, V domains shown)
VH: QVQLQESGPRLVKPSETLSLTCTVSGGSITNNYWSWIRQPAGKGLEWIGRVYSSGLTNYKPSLKSRVTMSVDTSKNQFSLRLNSVTAADTAVYYCARERATVTTRYHYDGMDVWGQGTSVTVSS
VL: QSALTQPASVSGSPGQSITISCTGSSSDIGTYNYVSWYQQYPGKAPELMIYEVNNRPSGVSDRFSGSTSGNTASLTISGLQANDEADYYCSSYSSSSTWVFGGGTKLTVL
notes: also called mAb E
In the case of B2, the “IC50, inhibition of IL-8 release” value (cyno CD30L LZ) is reported as 5.4 nM, the EC50 [1] is reported as 2.7 nM and the “% inhibition” value [2] is reported as 80%.

B3: Antibody F (antibody, V domains shown)
VH: QVQLQESGPGLVKPSETLSLTCTVSGGSISSYYWSWIRQPAGKGLEWIGRIFASGSTNYNPSLRSRVTMSRDTSKNQFSLKLSSVTAADTAVYYCAKERVGVQDYYHYSGMDVWGQGTTVTVSS
VL: QSALTQPASVSGSPGQSITISCTGTSSDVGLYNYVSWYQQQPGKAPKLMIYEVSKRPSGVSNRFSGSTSGNTASLTISGLQADDEADYSCSSYTSSSTWVFGGGTKLTVL
notes: also called mAb F
With B3 the “IC50, inhibition of IL-8 release” value (cyno CD30L LZ) was 5.5 nM and the EC50 [1] was 2.9 nM.

B4: Antibody B (antibody, V domains shown)
VH: QVQLQESGPGLVKPSETLSLTCTVSGGSISSYYWTWIRQPAGKGLEWIGRIYTSGITNYNPSLKSRVTMSVDTSKNQFSLKLSSVTAADTAVYYCARERVVGASRYYYYGVDVWGQGTTVTVSS
VL: QSALTQPASVSGSPGQSITISCTGTSSDVGLYNYVSWYQQHPDKAPKLMIFEVNNRPSGVSNRFSGSNSGNTASLTISGLQAEDEADYYCSSYTSSSTWVFGGGTKLTVL
notes: also called mAb B
In the case of B4, the “IC50, inhibition of IL-8 release” value (cyno CD30L LZ) is reported as 5.6 nM, the EC50 [1] is reported as 4 nM and the “% inhibition” value [2] is reported as 70%.

B5: Antibody C (antibody, V domains shown)
VH: QVQLQESGPGLVKPSETLSLTCTVSGGSISSYYWTWIRQPAGKGLEWIGRIYTSGITNYNPSLKSRVTMSVDTSKNQFSLKLSSVTAADTAVYYCARERVVGASRYYYYGVDVWGQGTTVTVSS
VL: QSALTQPASVSGSPGQSITISCTGTSSDIGLYDYVSWYQQHPDRAPKLIIFEVNNRPSGVSYRFSGSNSGNTASLTISGLQAEDEADYYCSSYTSSSTWVFGGGTKLTVL
notes: also called mAb C
In the case of B5, the “IC50, inhibition of IL-8 release” value (cyno CD30L LZ) is reported as 3.9 nM, the EC50 [1] is reported as 1 nM and the “% inhibition” value [2] is reported as 88%.

B6: Antibody D (antibody, V domains shown)
VH: QVQLQESGPGLVKPSETLSLTCTVSGGSISSYSWSWIRQPAGKGLEWIGRTSTSGRNNYNPSLKSRVTMSVDTSKNQFSLKLNSVTAADTAVYYCARDFTIAARRYYYYGMDVWGQGTTVTVSS
VL: QSALTQPASVSGSPGQSITISCTGTSSDIGLYNYVSWYQQHPGKAPKLIIYEVINRPSGVSNRFSGSESGNTASLTISGLQAEDEANYYCSSYTSSSTWVFGGGTKLTVL
notes: also called mAb D
In the case of B6, the “IC50, inhibition of IL-8 release” value (cyno CD30L LZ) is reported as 5.4 nM, the EC50 [1] is reported as 2.7 nM and the “% inhibition” value [2] is reported as 55%.
